The values that follow come from paper PMC4490372, “Architecture of TFIIIC and its role in RNA polymerase III pre-initiation complex assembly” (Nature Communications, 2015).

For assay [1], the target named is T1, τ131 (Tfc4), τA subunit of endogenous S. cerevisiae TFIIIC (S. cerevisiae, UniProt P33339 1-1025).
T1 construct: τ131 (Tfc4), subunit of S. cerevisiae TFIIIC, endogenous subunit in the purified complex; Endogenous subunit; source: endogenous, purified from S. cerevisiae strain SC2342 as part of TFIIIC (TAP tag on τ60)
T1 sequence (looked up): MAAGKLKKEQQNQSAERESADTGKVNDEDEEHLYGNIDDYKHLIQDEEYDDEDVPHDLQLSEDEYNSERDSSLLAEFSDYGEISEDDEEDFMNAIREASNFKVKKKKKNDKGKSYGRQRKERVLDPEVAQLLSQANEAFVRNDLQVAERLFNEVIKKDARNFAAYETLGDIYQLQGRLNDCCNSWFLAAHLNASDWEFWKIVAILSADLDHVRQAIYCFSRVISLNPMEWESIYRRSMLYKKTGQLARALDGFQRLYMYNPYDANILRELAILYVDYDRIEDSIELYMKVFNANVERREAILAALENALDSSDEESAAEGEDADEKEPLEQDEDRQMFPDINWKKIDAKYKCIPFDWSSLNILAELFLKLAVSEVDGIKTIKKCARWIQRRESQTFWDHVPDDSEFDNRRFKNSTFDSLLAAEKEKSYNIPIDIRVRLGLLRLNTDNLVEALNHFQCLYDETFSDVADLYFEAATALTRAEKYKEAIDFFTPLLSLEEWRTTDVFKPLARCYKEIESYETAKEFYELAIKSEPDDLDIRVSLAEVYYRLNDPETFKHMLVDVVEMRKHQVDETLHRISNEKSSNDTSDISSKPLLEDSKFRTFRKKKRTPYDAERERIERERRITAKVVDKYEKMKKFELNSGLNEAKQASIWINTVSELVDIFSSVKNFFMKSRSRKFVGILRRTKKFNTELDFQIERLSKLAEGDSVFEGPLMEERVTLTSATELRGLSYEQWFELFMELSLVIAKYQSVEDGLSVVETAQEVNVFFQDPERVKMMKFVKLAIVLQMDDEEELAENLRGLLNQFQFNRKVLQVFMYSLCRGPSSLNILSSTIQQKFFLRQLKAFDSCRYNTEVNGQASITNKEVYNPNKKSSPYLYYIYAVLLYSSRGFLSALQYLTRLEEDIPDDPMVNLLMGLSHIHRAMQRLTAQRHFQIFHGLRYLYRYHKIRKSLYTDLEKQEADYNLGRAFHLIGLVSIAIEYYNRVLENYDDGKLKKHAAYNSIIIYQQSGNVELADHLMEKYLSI
Put plainly: cross-linking; XL-MS: purified endogenous TFIIIC (30 μg, 1 μg/μl) cross-linked with H12/D12 DSS to 2 mM, 40 min at 37 °C; ld-score >25. The following applies: both partners purified.

The target in assay [2] is T2, τ138 (Tfc3), τB subunit of endogenous S. cerevisiae TFIIIC (S. cerevisiae, UniProt P34111 1-1160).
T2 construct: τ138 (Tfc3), subunit of S. cerevisiae TFIIIC, endogenous subunit in the purified complex; source: endogenous, purified from S. cerevisiae strain SC2342 as part of TFIIIC (TAP tag on τ60)
T2 sequence (looked up): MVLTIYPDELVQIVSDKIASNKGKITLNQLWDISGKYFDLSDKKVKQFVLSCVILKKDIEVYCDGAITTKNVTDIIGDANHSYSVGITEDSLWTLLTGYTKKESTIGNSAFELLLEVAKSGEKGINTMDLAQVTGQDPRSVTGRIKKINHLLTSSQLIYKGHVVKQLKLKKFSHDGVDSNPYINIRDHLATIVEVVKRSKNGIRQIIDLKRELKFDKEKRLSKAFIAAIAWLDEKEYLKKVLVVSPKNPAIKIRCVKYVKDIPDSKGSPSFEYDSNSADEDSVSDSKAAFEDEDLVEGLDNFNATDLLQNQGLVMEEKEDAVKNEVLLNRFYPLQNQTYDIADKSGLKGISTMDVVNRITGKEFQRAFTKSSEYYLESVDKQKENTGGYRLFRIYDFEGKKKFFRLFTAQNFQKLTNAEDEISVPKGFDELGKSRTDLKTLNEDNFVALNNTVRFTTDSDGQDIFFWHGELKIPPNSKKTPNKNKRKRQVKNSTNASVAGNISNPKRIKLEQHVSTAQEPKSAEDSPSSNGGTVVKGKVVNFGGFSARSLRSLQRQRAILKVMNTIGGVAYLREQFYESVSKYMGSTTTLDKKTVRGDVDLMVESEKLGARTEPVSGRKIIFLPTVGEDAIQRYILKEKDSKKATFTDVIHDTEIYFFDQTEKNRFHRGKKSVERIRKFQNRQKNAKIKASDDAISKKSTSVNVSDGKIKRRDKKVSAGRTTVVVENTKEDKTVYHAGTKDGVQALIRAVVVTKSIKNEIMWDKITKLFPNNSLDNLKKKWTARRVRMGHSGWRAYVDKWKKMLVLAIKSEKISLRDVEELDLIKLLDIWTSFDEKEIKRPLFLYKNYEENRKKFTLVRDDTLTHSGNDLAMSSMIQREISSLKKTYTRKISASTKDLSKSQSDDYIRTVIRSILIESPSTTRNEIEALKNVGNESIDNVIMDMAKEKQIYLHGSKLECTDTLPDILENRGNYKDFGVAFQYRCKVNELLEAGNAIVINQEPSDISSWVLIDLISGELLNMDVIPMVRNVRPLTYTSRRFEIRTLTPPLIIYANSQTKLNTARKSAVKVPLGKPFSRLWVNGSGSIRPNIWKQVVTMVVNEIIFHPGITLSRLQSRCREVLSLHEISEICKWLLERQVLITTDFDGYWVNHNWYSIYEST
The description is as above. The following applies: both partners purified.

B1: τ95 (Tfc1), τA subunit of endogenous S. cerevisiae TFIIIC (natural protein, UniProt P32367 1-649, looked up)
chain: MPVEEPLATLSSIPDSSADQAPPLIADEFTLDLPRIPSLELPLNVSTKHSSIQKAIKMCGGIEKVKEAFKEHGPIESQHGLQLYLNDDTDSDGSKSYFNEHPVIGKRVPFRDESVILKVTMPKGTLSKNNNSVKDSIKSLKDSNKLRVTPVSIVDNTIKFREMSDFQIKLDNVPSAREFKSSFGSLEWNNFKSFVNSVPDNDSQPQENIGNLILDRSVKIPSTDFQLPPPPKLSMVGFPLLYKYKANPFAKKKKNGVTEVKGTYIKNYQLFVHDLSDKTVIPSQAHEQVLYDFEVAKKTKVYPGTKSDSKFYESLEECLKILRELFARRPIWVKRHLDGIVPKKIHHTMKIALALISYRFTMGPWRNTYIKFGIDPRSSVEYAQYQTEYFKIERKLLSSPIVKKNVPKPPPLVFESDTPGGIDSRFKFDGKRIPWYLMLQIDLLIGEPNIAEVFHNVEYLDKANELTGWFKELDLVKIRRIVKYELGCMVQGNYEYNKYKLKYFKTMLFVKESMVPENKNSEEGMGVNTNKDADGDINMDAGSQMSSNAIEEDKGIAAGDDFDDNGAITEEPDDAALENEEMDTDQNLKVPASIDDDVDDVDADEEEQESFDVKTASFQDIINKIAKLDPKTAETMKSELKGFVDEVDL
notes: τ95 (Tfc1), subunit of S. cerevisiae TFIIIC, endogenous subunit in the purified complex; source: endogenous, purified from S. cerevisiae strain SC2342 as part of TFIIIC (TAP tag on τ60)
For the molecule B1, the binding result in assay [1] and in assay [2] was “binds” in each case.
